Results: patent publication US20120219547A1 (LIVZON MABPHARM, published 2012)

How the values were obtained:
[1] = target: T1, recombinant human tumor necrosis factor-α (human, UniProt P01375 77-233); assay: cell-based or functional assay
[2] = target: T1, recombinant human tumor necrosis …; assay: competition ELISA, rhTNF coated on plate, competitor HRP-labeled humira; given in µg/mL
Experimental: The anti-hTNFα human antibody humira marked with horseradish peroxidase (HRP) was used as a reagent. Elisa plates were coated with rhTNF (50 μl of […]), and left overnight at room temperature. The coating solution was discarded, and each well was blocked with 1% skim milk in phosphate buffered saline (PBS) for about 0.5 hours, and washed with PBS containing 0.05% Tween 20. And then a mixture of 50 μl of growth medium and 50 μl of HRP labeled humira was added to each well. Unlabeled humira and antibody-free medium were used as positive and negative controls. […] The wells in which the binding of HRP-labeled humira and rhTNFα was inhibited Kong were amplified and subcloned, followed by analysis of several mouse monoclonal antibodies which show the inhibition effects, and finally hybridoma cells were screened out. The hybridoma cells were intermediate cultured, and the supernatant was taken for purification, and the mouse monoclonal antibody TM2-11-12 and TM2-6-3. The purified mouse monoclonal antibodies TM2-11-12 and TM2-6-3 were tested in competition binding assays. Even at the concentration up to 1 μg/mL, the mouse antibody TM2-6-3 only competed out about 50% of the binding of humira to hTNFα.

mouse TNFα [3] = target: T2, mouse TNFα (mouse, UniProt P06804 80-235); assay: ELISA, TNFα coated on plate, HRP-labeled anti-human Fc detection
T2 sequence (looked up): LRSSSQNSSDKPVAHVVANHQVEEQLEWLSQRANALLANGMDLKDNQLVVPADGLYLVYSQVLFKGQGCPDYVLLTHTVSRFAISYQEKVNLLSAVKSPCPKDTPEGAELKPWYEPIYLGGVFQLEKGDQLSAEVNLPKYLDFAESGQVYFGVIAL
Experimental: (§1) On a plate, respectively coat recombinant human TNFα 5 ng/well, mouse TNFα 25 ng/well, and monkey TNFα 5 ng/well at room temperature, and blocked for 1 h, washed. And then 1.8-fold gradient dilutions of AT132 was added with an initial concentration of 250 ng/mL, and incubated at 25° C. for 2 h, washed, HRP-labeled anti-human Fc antibody added, and incubated at room temperature for 1 h, washed, and the substrate solution added as 100 μl/well, placed in dark at 37° C. for 30 min. In accordance with the order of the added color reagents, 0.2 M H₂SO₄, 50 μl/well was added to terminate the reaction. Within about 5 minutes after termination, OD values were test at 450 nm/630 nm on a microplate reader, and median effective concentrations were obtained by four-parameter fitting. Compare the binding activities of AT132 to different sources of TNFα.

[4] = target: T1, recombinant human tumor necrosis …; assay: SPR, Biacore X100; antibody captured by goat anti-human IgG Fc on CM5 chip, TNFα as analyte
Experimental: AT132 affinity was determined by Biacore X100, and analyzed with Biacore X100 kinetics/affinity analysis software. Using indirect capture method, goat anti-human IgG Fc polyclonal antibody was coupled to the surface of CM5 chip as a capture molecule by using Amine Coupling Kit. By calculation, AT132 and Humira as control were respectively diluted to a a certain concentration to be lately used as ligand, and TNFα as the analyte. Analytes were diluted to 5 concentrations, and each concentration as a cycle. First, using HBS-EP buffer to run for three cycles, designing an analyte concentration of 0 concentration to run for two cycles, and finally, designing a repeat analyte concentration to run for a cycle. The whole process ran 11 cycles, and each cycle can draw a curve. The dynamics/affinity data of the measured antibody and humira were analyzed by Biacore X100 kinetics/affinity analysis software.

monkey TNFα = monkey TNFα (monkey); assay: ELISA, TNFα coated on plate (5 ng/well), HRP-labeled anti-human Fc detection, four-parameter fit
Experimental: as §1

mouse TNFα [5] = target: T2, mouse TNFα; assay: ELISA, TNFα coated on plate (mouse 25 ng/well, human 5 ng/well), HRP-labeled anti-human Fc detection; calculated from coating and sample concentrations
Experimental: as §1

T1 sequence (P01375 77-233 limits assumed): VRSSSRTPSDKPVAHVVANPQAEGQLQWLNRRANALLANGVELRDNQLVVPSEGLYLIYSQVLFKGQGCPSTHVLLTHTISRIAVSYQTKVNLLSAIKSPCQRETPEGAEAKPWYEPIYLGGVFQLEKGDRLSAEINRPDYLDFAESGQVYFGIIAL

B1: AT135 humanized anti-TNFα antibody (antibody, human IgG1, V domains shown)
VH: QVQLVQSGPELKKPGASVKISCKASGYTFTHYGMHWVKQTPGRGLKWVGWINTYTGEPTYDADFQGRFTFSLDTSVSTAFLQINSLKDEDLAVYFCARYDFDGFDYWGQGTTLTVSS
VL: ENVLTQSPPILSASPGERVTMTCRASSSITFNYLHWYQQKSGDSPKVWIYSTSNLVSGVPSRFSGSGSGTSYSLTISSLEAEDAATYYCQQYSDYPYTFGGGTKLEIK
EC50(ng/mL), neutralization of TNFα killing effect on L929 cell [1]: 50 ng/mL

B2: mouse monoclonal antibody TM2-11-12 (antibody, mouse IgG1, V domains shown)
VH: QVQLVQSGPELKKPGETVKISCKASGYTFTHYGMHWVKQTPGRSLKWVGWINTYTGEPTYDADFQGRFTFSLETSTSTAFLQINTLKDEDLATYFCARYDFDGFDYWGQGTTLTVSS
VL: ENVLTQSPPIMSASPGEEVTMTCRASSSITFNYLHWYQQKSGDSPKVWIYSTSNLVSGVPARFSGSGSGTSYSLTISSVEAEDAATYYCQQYSDYPYTFGGGTKLEIK
notes: Purified from hybridoma supernatant; The cloning primers are antisense to the mouse IgG1 heavy chain and mouse kappa light chain constant regions; also called anti-hTNFα mouse antibody TM2-11-12
IC50 [2]: ~0.05 µg/mL

B3: AT143 humanized anti-TNFα antibody (antibody, human IgG1, V domains shown)
VH: QVQLVQSGPELKKPGESVKISCKASGYTFTHYGMHWVKQTPGRGLKWVGWINTYTGEPTYDADFQGRFTFSLETSTSTAYLQINSLKDEDLATYFCARYDFDGFDYWGQGTTLTVSS
VL: ENVLTQSPPIMSASPGERVTMTCRASSSITFNYLHWYQQKSGDSPKVLIYSTSNLVSGVPSRFSGSGSGTSYSLTISSVEAEDAATYYCQQYSDYPYTFGGGTKLEIK
EC50(ng/mL), neutralization of TNFα killing effect on L929 cell [1]: 39.8 ng/mL

B4: AT164 humanized anti-TNFα antibody (antibody, human IgG1, V domains shown)
VH: QVQLVQSGPELKKPGASVKISCKASGYTFTHYGMHWVKQTPGRGLKWVGWINTYTGEPTYDADFQGRFTFSLDTSVSTAFLQINSLKDEDLAVYFCARYDFDGFDYWGQGTTLTVSS
VL: ENVLTQSPPIMSASPGERVTMTCRASSSITFNYLHWYQQKSGDSPKVLIYSTSNLVSGVPSRFSGSGSGTSYSLTISSVEAEDAATYYCQQYSDYPYTFGGGTKLEIK
EC50(ng/mL), neutralization of TNFα killing effect on L929 cell [1]: 45.5 ng/mL

B5: AT151 humanized anti-TNFα antibody (antibody, human IgG1, V domains shown)
VH: QVQLVQSGPELKKPGASVKISCKASGYTFTHYGMHWVKQTPGRGLKWVGWINTYTGEPTYDADFQGRFTFSLETSVSTAFLQINSLKDEDLATYFCARYDFDGFDYWGQGTTLTVSS
VL: ENVLTQSPPILSASPGEEVTMTCRASSSITFNYLHWYQQKSGDSPKVWIYSTSNLVSGVPARFSGSGSGTSYSLTISSLEAEDFATYYCQQYSDYPYTFGGGTKLEIK
EC50(ng/mL), neutralization of TNFα killing effect on L929 cell [1]: 42.1 ng/mL

B6: AT132 humanized anti-TNFα monoclonal antibody (antibody, human IgG1, V domains shown)
VH: QVQLVQSGPELKKPGASVKISCKASGYTFTHYGMHWVKQTPGRGLKWVGWINTYTGEPTYDADFQGRFTFSLETSVSTAFLQINSLKDEDLATYFCARYDFDGFDYWGQGTTLTVSS
VL: ENVLTQSPPILSASPGERVTMTCRASSSITFNYLHWYQQKSGDSPKVWIYSTSNLVSGVPSRFSGSGSGTSYSLTISSLEAEDAATYYCQQYSDYPYTFGGGTKLEIK
notes: also called E001VH/F001VL
EC50(ng/mL), neutralization of TNFα killing effect on L929 cell [1]: 20.4 ng/mL | binding result (mouse TNFα [3]): no binding | Ka [4]: 8.4e+10 M⁻¹ | Kd [4]: 0.0119 nM | binding activity relative to human TNFα (monkey TNFα): ~50% | fold lower binding activity than to human TNFα (mouse TNFα [5]): 1000 times lower
